{"source": "paper PMC7409301", "about": "“Natural Killer Cell Activation Receptor NKp30 Oligomerization Depends on Its N-Glycosylation” (Cancers, 2020)", "proteins": {"B1": {"name": "NKp30: Endo F1 (protein)", "parent chain": "MAWMLLLILIMVHPGSCALWVSQPPEIRTLEGSSAFLPCSFNASQGRLAIGSVTWFRDEVVPGKEVRNGTPEFRGRLAPLASSRFLHDHQAELHIRDVRGHDASIYVCRVEVLGLGVGTGNGTRLVVEKEHPQLGAGTVLLLRAGFYAVSFLSVAVGSTVYYQGKCLTWKGPRRQLPAVVPAPLPPPCGSSAHLLPPVPGG"}, "B2": {"name": "wild-type B7-H6 extracellular portion (with the odd cysteine Cys212) (domain or fragment, UniProt Q68D85 25-245, looked up)", "chain": "DLKVEMMAGGTQITPLNDNVTIFCNIFYSQPLNITSMGITWFWKSLTFDKEVKVFEFFGDHQEAFRPGAIVSPWRLKSGDASLRLPGIQLEEAGEYRCEVVVTPLKAQGTVQLEVVASPASRLLLDQVGMKENEDKYMCESSGFYPEAINITWEKQTQKFPHPIEISEDVITGPTIKNMDGTFNVTSCLKLNSSQEDPGTVYQCVVRHASLHTPLRSNFTL", "modifications": "N-glycosylated; disulfide bridges not linked correctly by mass spectrometry", "notes": "entire extracellular portion Asp25-Leu245 with two Ig-like domains; source: HEK293 cells, transient transfection, secreted, purified (IMAC, SEC); not shown: three amino acids left after cleavage of the secretion signal, N-terminal, kept"}}, "key": {"SEC-MALS": {"experiment": "SEC-MALS", "conditions": "glycan lost; control: glycosylated NKp30_Stalk (HEK293T or HEK293S GnTI−)"}, "[1]": {"experiment": "sedimentation velocity AUC", "conditions": "glycan lost; control: NKp30_Stalk from HEK293S GnTI− (uniform glycans)"}, "[2]": {"target": "the molecule itself", "experiment": "AUC; sedimentation velocity of wild-type B7-H6 at 0.5 mg/mL, c(s) distribution"}}, "note": "Values joined by “and” are separate entries in the source; they are usually repeats but may differ in a detail not shown here. Equal values may be shown once."}
{"protein": "B1", "values": [{"measurement": "oligomerisation", "setting": "SEC-MALS", "value": "abolishes"}, {"measurement": "oligomerisation", "setting": "[1]", "value": "abolishes"}]}
{"protein": "B2", "values": [{"measurement": "stoichiometry N", "setting": "[2]", "value": "2 and 4"}]}
